Source: patent publication US20010010923A1, “MODIFIED CARBOXYPEPTIDASE” (priority 1997, published 2001)
Marks after values point to notes of the source that are not given here.

Assays:
Assay type in all cases: biochemical
[1] = Transpeptidation of Bz-G-A-R-A-R-X-OH at pH 6.5 at 50% substrate consumption, Table 5; design: key to fa: fa = aminolysis product / sum of all products formed; details: for Pmax (peak product yield) / fa: 750 mM H-Leu-NH2; for fa / t: 50% substrate consumption; for t: 750 mM H-Leu-NH2, 2 mM substrate, [E] 0.1 mg/mL
Protocol: Transamidation reactions were carried out generally as described in PCT Application WO 95/20039. In general, the method included dissolving the nucleophile (H-Leu-NH2, unless otherwise indicated) in 50 mM HEPES, […], 5 μl of peptide substrate (8 mM Bz-G-A-R-A-R-A-OH, unless otherwise indicated, in methanol) was added to 190 μl nucleophile solution followed by 5 μl enzyme, resulting in a substrate concentration of 0.2 mM.
(§1) During the reaction, 20 μl aliquots were removed from the reaction mixture and added to 50 μl 1% trifluoroacetic acid to quench the reaction. The reactant composition was determined by HPLC using a Waters HPLC equipped with a C-18 Waters Novapac 4μ reverse phase column and various gradients of acetonitrile in 0.1% trifluoroacetic acid. The separation was monitored at 254 nm allowing the direct quantification of the products from the integrated peak areas. The composition of the reaction mixture was determined at least twvice during the reaction, the first when 20-50% (preferably 35%) of the substrate had been consumed in the reaction and the second time when 50-90% (preferably 80%) of the peptide substrate had been consumed.
The fraction of aminolysis (fa) was expressed as the ratio between the formed aminolysis product and the sum of all products formed. Unconsumed substrate was disregarded in the calculations. […]

[2] = Transpeptidation of Bz-G-A-R-A-R-X-OH at pH 7.5 at 50% substrate consumption, Table 4; design: key to fa: fraction: aminolysis product / sum of all products formed; details: for fa / t: 50% substrate consumption; for t: 375 mM H-Leu-NH2, 2 mM substrate, [E] 0.1 mg/mL
Protocol: Transamidation reactions were carried out generally as described in PCT Application WO 95/20039. In general, the method included dissolving the nucleophile (H-Leu-NH2, unless otherwise indicated) in 50 mM HEPES, 5 mM EDTA and adjusting the pH to 7.5, 5 μl of peptide substrate (8 mM Bz-G-A-R-A-R-A-OH, unless otherwise indicated, in methanol) was added to 190 μl nucleophile solution followed by 5 μl enzyme, resulting in a substrate concentration of 0.2 mM.
as §1
The fraction of aminolysis (fa) was expressed as the ratio between the formed aminolysis product and the sum of all products formed. Unconsumed substrate was disregarded in the calculations.
Site specific mutagenesis was performed as described for Example 1 to generate the specific mutants described below. Transamidation reactions were performed as described for Examples 1.

[3] = Transpeptidation of FA-Ala-Xaa-OH with H-Gly-NH2, Table 2; details: 1.9 M H-Gly-NH2, pH 7.5, room temperature; for Fraction of aminolysis (fa), P1' Ala: FA-Ala-Ala-OH 0.2 mM; for Fraction of aminolysis (fa), P1' Leu: FA-Ala-Leu-OH 0.2 mM; for Fraction of aminolysis (fa), P1' Met: FA-Ala-Met-OH 0.2 mM; for Fraction of aminolysis (fa), P1' Phe: FA-Ala-Phe-OH 0.2 mM; for Fraction of aminolysis (fa), P1' Val: FA-Ala-Val-OH 0.2 mM
Summary of the method: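 Enzyme reacted with 0.2 mM peptide substrate and nucleophile in 50 mM HEPES, 5 mM EDTA, pH 7.5; aliquots quenched in 1% TFA. Products quantified by reverse-phase HPLC at 254 nm at two conversion points (20-50% and 50-90% substrate consumed). Fraction of aminolysis = aminolysis product over all products, ignoring unconsumed substrate.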

[4] = Transpeptidation of FA-Ala-OBzl with H-Leu-NH2, Table 3; details: FA-Ala-OBzl 0.2 mM, pH 7.5; for fa: H-Leu-NH2; for KN(app): nucleophile H-Leu-NH2 concentration at which fa is half of maximum
Summary of the method: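 Site-directed mutant enzymes were reacted with H-Leu-NH2 in 50 mM HEPES, 5 mM EDTA, pH 7.5, with acyl-donor substrate at 0.2 mM final. Products were quantified by C-18 RP-HPLC at 254 nm at about 35% and 80% substrate consumption. fa is aminolysis product over all products; famax is fa at nucleophile saturation, and KN(app) is the nucleophile concentration giving famax/2.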

[5] = leaving group A, 375 mM H-Leu-NH2
[6] = leaving group I, 375 mM H-Leu-NH2
[7] = leaving group L, 375 mM H-Leu-NH2
[8] = leaving group M, 375 mM H-Leu-NH2
[9] = leaving group V, 375 mM H-Leu-NH2

| Molecule | Pmax (peak product yield) ([1]; leaving group A) | fa ([1]; leaving group A) | t ([1]; leaving group A) [min] | Pmax (peak product yield) ([1]; leaving group L) | fa ([1]; leaving group L) | t ([1]; leaving group L) [min] | Pmax (peak product yield) [2, 5] | fa [2, 5] | t ([2]; leaving group A) [min] | fa [2, 6] | t ([2]; leaving group I) [min] | Pmax (peak product yield) [2, 7] | fa [2, 7] | t ([2]; leaving group L) [min] | fa [2, 8] | t ([2]; leaving group M) [min] | fa [2, 9] | t ([2]; leaving group V) [min] | Fraction of aminolysis (fa), P1' Ala [3] | Fraction of aminolysis (fa), P1' Leu [3] | also measured |
| --- | --- | --- | --- | --- | --- | --- | --- | --- | --- | --- | --- | --- | --- | --- | --- | --- | --- | --- | --- | --- | --- |
| N51Q + L178S + M398L: carboxypeptidase Y mutant N51Q + L178S + M398L (protein, UniProt P00729 112-532, looked up, variant N51Q L178S M398L) Carboxypeptidase Y: KIKDPKILGIDPNVTQYTGYLDVEDEDKHFFFWTFESRNDPAKDPVILWLQGGPGCSSLTGLFFELGPSSIGPDLKPIGNPYSWNSNATVIFLDQPVNVGFSYSGSSGVSNTVAAGKDVYNFLELFFDQFPEYVNKGQDFHIAGESYAGHYIPVFASEILSHKDRNFNLTSVLIGNGSTDPLTQYNYYEPMACGEGGEPSVLPSEECSAMEDSLERCLGLIESCYDSQSVWSCVPATIYCNNAQLAPYQRTGRNVYDIRKDCEGGNLCYPTLQDIDDYLNQDYVKEAVGAEVDHYESCNFDINRNFLFAGDWMKPYHTAVTDLLNQDLPILVYAGDKDFICNWLGNKAWTDVLPWKYDEEFASQKVRNWTASITDEVAGEVKSYKHFTYLRVFNGGHLVPFDVPENALSMVNEWIHGGFSL | 0.70 | 0.91 | 194 | 0.80 | 0.84 | 36 | >0.67 | 0.87 | 24 | 0.82 | 129 | >0.73 | 0.76 | 52 | 0.75 | 84 | 0.82 | 168 |  |  | fraction of aminolysis for leucine as a leaving group, in words [2]: improved; Pmax (peak product yield) ([2]; leaving group L, 375 mM H-Leu-NH2, listed as N51Q+L178S+M398L): 0.73 |
| M398R: carboxypeptidase Y S1' mutant, substitution M398R (protein, UniProt P00729 112-532, looked up, variant M398R) Carboxypeptidase Y: KIKDPKILGIDPNVTQYTGYLDVEDEDKHFFFWTFESRNDPAKDPVILWLNGGPGCSSLTGLFFELGPSSIGPDLKPIGNPYSWNSNATVIFLDQPVNVGFSYSGSSGVSNTVAAGKDVYNFLELFFDQFPEYVNKGQDFHIAGESYAGHYIPVFASEILSHKDRNFNLTSVLIGNGLTDPLTQYNYYEPMACGEGGEPSVLPSEECSAMEDSLERCLGLIESCYDSQSVWSCVPATIYCNNAQLAPYQRTGRNVYDIRKDCEGGNLCYPTLQDIDDYLNQDYVKEAVGAEVDHYESCNFDINRNFLFAGDWMKPYHTAVTDLLNQDLPILVYAGDKDFICNWLGNKAWTDVLPWKYDEEFASQKVRNWTASITDEVAGEVKSYKHFTYLRVFNGGHRVPFDVPENALSMVNEWIHGGFSL |  |  |  |  |  |  |  |  |  |  |  |  |  |  |  |  |  |  | 0.48 | 0.16 | Fraction of aminolysis (fa), P1' Met [3]: 0.33; Fraction of aminolysis (fa), P1' Phe [3]: 0.11; Fraction of aminolysis (fa), P1' Val [3]: 0.26; fa [4]: 0.39^b; KN(app) [4]: 9.9^c mM |
| T60E: carboxypeptidase Y S1' mutant, substitution T60E (protein, UniProt P00729 112-532, looked up, variant T60E) Carboxypeptidase Y: KIKDPKILGIDPNVTQYTGYLDVEDEDKHFFFWTFESRNDPAKDPVILWLNGGPGCSSLEGLFFELGPSSIGPDLKPIGNPYSWNSNATVIFLDQPVNVGFSYSGSSGVSNTVAAGKDVYNFLELFFDQFPEYVNKGQDFHIAGESYAGHYIPVFASEILSHKDRNFNLTSVLIGNGLTDPLTQYNYYEPMACGEGGEPSVLPSEECSAMEDSLERCLGLIESCYDSQSVWSCVPATIYCNNAQLAPYQRTGRNVYDIRKDCEGGNLCYPTLQDIDDYLNQDYVKEAVGAEVDHYESCNFDINRNFLFAGDWMKPYHTAVTDLLNQDLPILVYAGDKDFICNWLGNKAWTDVLPWKYDEEFASQKVRNWTASITDEVAGEVKSYKHFTYLRVFNGGHMVPFDVPENALSMVNEWIHGGFSL |  |  |  |  |  |  |  |  |  |  |  |  |  |  |  |  |  |  | 0.82 | 0.05 | Fraction of aminolysis (fa), P1' Met [3]: 0.07; Fraction of aminolysis (fa), P1' Phe [3]: 0.02; Fraction of aminolysis (fa), P1' Val [3]: 0.33; fa [4]: 0.94^a; KN(app) [4]: 2.0^b mM |
| N51Q + L178S: carboxypeptidase Y mutant N51Q + L178S (S1' and S1 subsites) (protein, UniProt P00729 112-532, looked up, variant N51Q L178S) Carboxypeptidase Y: KIKDPKILGIDPNVTQYTGYLDVEDEDKHFFFWTFESRNDPAKDPVILWLQGGPGCSSLTGLFFELGPSSIGPDLKPIGNPYSWNSNATVIFLDQPVNVGFSYSGSSGVSNTVAAGKDVYNFLELFFDQFPEYVNKGQDFHIAGESYAGHYIPVFASEILSHKDRNFNLTSVLIGNGSTDPLTQYNYYEPMACGEGGEPSVLPSEECSAMEDSLERCLGLIESCYDSQSVWSCVPATIYCNNAQLAPYQRTGRNVYDIRKDCEGGNLCYPTLQDIDDYLNQDYVKEAVGAEVDHYESCNFDINRNFLFAGDWMKPYHTAVTDLLNQDLPILVYAGDKDFICNWLGNKAWTDVLPWKYDEEFASQKVRNWTASITDEVAGEVKSYKHFTYLRVFNGGHMVPFDVPENALSMVNEWIHGGFSL | 0.78 | 0.87 | 31 | 0.26 | 0.28 | 19 | 0.60 | 0.72 | 34 | 0.62 | 211 | 0.18 | 0.20 | 23 | 0.51 | 211 | 0.62 | 194 |  |  |  |
